Measured values published in patent publication US20180188270A1, “DIAGNOSTIC TEST FOR ALZHEIMER'S DISEASE BASED ON IDENTIFICATION OF A PROTEOLYTIC PATHWAY” (Health Research, Inc., priority 2015, published 2018).

Key:
FVIIa = molecular target: T1, FVIIa (Homo sapiens, UniProt P08709); assay: In vitro degradation by FVIIa with or without TF; type: biochemical; conditions: for hPEPD remaining (enzymatic activity): 60 min
T1 construct: purchased Haematologic Technologies HCVIIA-0031 (FVIIa); RTF-0300 (TF)
Experimental: To determine whether a blood coagulation factor degrades hPEPD, hPEPD at 90 nM or lower concentrations (10 or 40 nM) was incubated with solvent, 100 nM FIIa, 100 nM FXa, 10 nM FVIIa with or without 10 nM TF, or 10 nM FVII with or without 10 nM TF and/or 100 nM FIIa in PBS in a total volume of 100 μl containing 5 mM CaCl2 for desired times at RT. […] To compare the hPEPD-degrading activities of different plasma samples, 9.2 pmol of hPEPD was incubated with 100 μl of plasma from WT mice or FVII^tTA/tTA mice at RT, with or without FIIa or FXa (10 pmol), and to maximize detection of any activity, all incubations lasted for 24 h. […] To measure remaining hPEPD, the incubated samples were cleared of potential fibrin clots by centrifugation and then analyzed by SDS-PAGE and silver staining (using the LC 6070 kit from Invitrogen), IB or measurement of hPEPD enzymatic activity. hPEPD enzymatic activity was measured using glycyl-proline as a substrate (as described in Zbucka et al., Folia Histochem Cytobiol 2007; 45 Suppl 1: S181-185). The precipitates from each incubated sample were washed with PBS twice and then resuspended in 2.5% SDS (20 μper sample); each solution was mixed with 10 μl loading dye and analyzed for hPEPD by IB, using pure hPEPD as a standard and factor FXIIIa as a binding control, respectively.
All samples after incubation were resolved by SDS-PAGE and stained by silver.
(§1) Each value is mean±SD (n=3).

FXII [1] = assay: Binding to coagulation factor FXII (IP and IB); design: species or system human; conditions: 40 nM (hAβ1-42 200 nM) with FXII in PBS, 2 h
Experimental: Binding reactions were carried out in PBS in a total volume of 100 μl for 2 h at 37° C. To assess binding of hPEPD to HMWK, PK, FXI, FXII or a FXII mutant, hPEPD at 40 nM was incubated with a potential binding partner at 0.5 μM. All FXII mutants are His tagged, while FXII is either 6XHis-tagged (generated in our own laboratory) or not His-tagged (purchased commercially), depending on the experiment. To compare hPEPD and its mutants for binding to FXII, hPEPD or a mutant (40 nM) was incubated with FXII at 0.5 μM. Likewise, to assess binding of mSRC to FXII and its mutants, mSRC (40 nM) was incubated with FXII or a mutant at 0.5 μM. At the end of the incubation, 300 μl PBS containing a specific primary antibody was added to the incubation solution, which was further incubated at 4° C. overnight, followed by IP by protein G-agarose, and the precipitates were analyzed by IB. […] The precipitates were re-dissolved in 30 μl of 2% SDS, which were analyzed along with the supernatants by IB.

FXII [2] = assay: FXII activation, chromogenic assay; type: biochemical, human
Experimental: Measurement of FXII activation. […] FXII activation was followed for 3 h at RT by monitoring the conversion of the chromogenic substrate at 405 nm by a microtiter plate reader.
as §1

FX, FII or FVII = assay: Potential activation of FX, FII or FVII by hPEPD (IB); type: biochemical, human; conditions: hPEPD 40 nM, 5 mM CaCl2, RT, 24 h
Experimental: Measurement of Potential Activation of FX, FII or FVII by hPEPD. hPEPD (40 nM) was incubated with FX, FIT or FVII […] in PBS at RT in the presence of 5 mM CaCl2 for 24 h, followed by IB analysis for potential activation/cleavage of each coagulation factor. FXa, FIIa and FVIIa were used as positive controls in the experiments.

plasma mSRC = assay: Plasma SRC concentration in mice by ELISA; type: in vivo, mouse; conditions: FXII−/− mice, CCl4 0.5 g/kg or hPEPD 4 mg/kg i.p., 24 h
Experimental: Animal studies. All animal studies were performed in accordance with protocols approved by the Institutional Animal Care and Use Committee at Roswell Park Cancer Institute. Male mice at 7-8 weeks of age were used, including wild type (WT) mice (C57BL/6), and mice deficient in FXII (C57BL/6-FXII^−/−) or FVII (C57BL/6-FVII^tTA/tTA). WT C57BL/6 mice were purchased from Taconic. C57BL/6-FXII^−/− mice and C57BL/6-FVII^tTA/tTA mice were bred in our own facility and genotyped. The breeders were kindly provided by Dr. Francis J. Castellino at University of Notre Dame. […] CCl4 was dissolved in corn oil, whereas all other substances were dissolved in PBS. The vehicle or the test substance was given to mice in 0.1 ml volume per 20 g body weight. Blood was collected from the mice at specific times by cardiac puncture at the time of sacrifice by carbon dioxide, and heart, liver and kidney were also collected from some of the mice. […]
Measurement of plasma levels of PEPD, SRC, Aβ1-42 and FI. […] Upon adequate color development, 100 μl of stop solution (Cell Signaling, 7002) was added to each well, and absorbance at 450 nm was promptly recorded by a microtiter plate reader. Plasma FI concentration was determined using an assay kit (400-374-130050) from GenWay Biotech, following the manufacturer's instruction.

T1 sequence (P08709 61-212 limits assumed): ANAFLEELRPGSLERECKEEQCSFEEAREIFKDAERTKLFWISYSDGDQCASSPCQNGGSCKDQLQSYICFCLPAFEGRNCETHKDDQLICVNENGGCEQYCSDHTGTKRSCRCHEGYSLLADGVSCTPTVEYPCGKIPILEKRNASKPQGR
T1 sequence (P08709 213-466 limits assumed): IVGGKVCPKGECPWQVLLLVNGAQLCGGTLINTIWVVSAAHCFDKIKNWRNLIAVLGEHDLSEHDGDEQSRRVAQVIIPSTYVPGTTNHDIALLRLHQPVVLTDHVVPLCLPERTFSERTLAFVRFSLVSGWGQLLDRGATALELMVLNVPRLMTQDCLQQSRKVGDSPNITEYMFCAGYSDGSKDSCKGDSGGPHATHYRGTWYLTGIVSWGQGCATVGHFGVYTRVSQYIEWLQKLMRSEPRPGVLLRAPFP
T1 sequence (P13726 33-295 partner): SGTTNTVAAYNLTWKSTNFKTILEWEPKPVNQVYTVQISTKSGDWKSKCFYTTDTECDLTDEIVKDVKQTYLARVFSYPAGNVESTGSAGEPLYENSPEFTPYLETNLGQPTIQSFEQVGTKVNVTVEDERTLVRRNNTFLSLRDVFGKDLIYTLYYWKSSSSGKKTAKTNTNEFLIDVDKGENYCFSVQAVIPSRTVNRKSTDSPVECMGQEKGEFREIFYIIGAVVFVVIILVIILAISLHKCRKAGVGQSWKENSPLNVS

B1: hPEPD: recombinant human prolidase (PEPD), 6xHis tagged to the carboxy terminus (protein, UniProt P12955 2-493, looked up)
Xaa-Pro dipeptidase: AAATGPSFWLGNETLKVPLALFALNRQRLCERLRKNPAVQAGSIVVLQGGEETQRYCTDTGVLFRQESFFHWAFGVTEPGCYGVIDVDTGKSTLFVPRLPASHATWMGKIHSKEHFKEKYAVDDVQYVDEIASVLTSQKPSVLLTLRGVNTDSGSVCREASFDGISKFEVNNTILHPEIVECRVFKTDMELEVLRYTNKISSEAHREVMKAVKVGMKEYELESLFEHYCYSRGGMRHSSYTCICGSGENSAVLHYGHAGAPNDRTIQNGDMCLFDMGGEYYCFASDITCSFPANGKFTADQKAVYEAVLRSSRAVMGAMKPGVWWPDMHRLADRIHLEELAHMGILSGSVDAMVQAHLGAVFMPHGLGHFLGIDVHDVGGYPEGVERIDEPGLRSLRTARHLQPGMVLTVEPGIYFIDHLLDEALADPARASFLNREVLQRFRGFGGVRIEEDVVVTDSGIELLTCVPRTVEEIEACMAGCDKAFTPFSGPK
modifications: C-terminal 6xHis tag
notes: recombinant human prolidase (PEPD), 6xHis tagged to the carboxy terminus
Which “proteolysis/fragmentation by FVIIa plus TF” value (FVIIa; FVIIa 10 nM plus TF 10 nM, CaCl2-containing PBS, RT) does the source give for B1 here?
The value was “caused rapid and extensive hPEPD proteolysis”.

What about the “degradation by FVIIa in the absence of TF” value (FVIIa; FVIIa 10 nM, no TF) of the same molecule?
The value was “degraded hPEPD”.

What about the “hPEPD remaining (enzymatic activity)” value (FVIIa; hPEPD 10 nM, FVIIa 10 nM plus TF 10 nM, RT) of the same molecule?
The value was 35.9%.

What about the “hPEPD remaining (enzymatic activity)” value (FVIIa; hPEPD 40 nM, FVIIa 10 nM plus TF 10 nM, RT) of the same molecule?
Its value is 46.3%.

And the “hPEPD remaining (enzymatic activity)” value (FVIIa; hPEPD 90 nM, FVIIa 10 nM plus TF 10 nM, RT)?
The value was 52.4%.

And the “binding to FXII” value (FXII [1])?
Its value is “binds only to FXII”.

What about the FXII activation (FXII [2]; FXII 0.97 nM, ZnCl2-containing PBS, RT) of the same molecule?
Its FXII activation is “did not differ in activating FXII”.

What about the “Zn2+ requirement of FXII activation” value (FXII [2]; with or without ZnCl2 15 μM, IB) of the same molecule?
The value was “required Zn^2+”.

And the “direct activation of FX, FII or FVII” value (FX, FII or FVII)?
The value was “does not directly activate any of these factors”.

What about the “average plasma level of mSRC, increase” value (plasma mSRC) of the same molecule?
Its value is “remained unchanged”.
